Source: US10064928B2, “Peptides and combination of peptides for use in immunotherapy against CLL and other cancers” (IMMATICS BIOTECHNOLOGIES GMBH, priority 2015, dated 2018)

biological target: HLA-A*02:01 (Homo sapiens, UniProt P04439, D140Y/D185E/D98H/E176V/E277Q/G131W/G231S/I119V/I121R/I166T/I218V/L300P/L318F/N151K/N90K/P208A/P217A/Q86G/Q94H/R138H/R169H/T345S); test: MHC binding assay (UV-ligand exchange, beta2m ELISA); conditions: binding of HLA-class I restricted peptides to HLA-A*02:01, β2m ELISA
Excerpt: Candidate peptides for T cell based therapies according to the present invention were further tested for their MHC binding capacity (affinity). The individual peptide-MHC complexes were produced by UV-ligand exchange, where a UV-sensitive peptide is cleaved upon UV-irradiation, and exchanged with the peptide of interest as analyzed. Only peptide candidates that can effectively bind and stabilize the peptide-receptive MHC molecules prevent dissociation of the MHC complexes. To determine the yield of the exchange reaction, an ELISA was performed based on the detection of the light chain (β2m) of stabilized MHC complexes. The assay was performed as generally described in Rodenko et al. (Rodenko et al., 2006).
96 well MAXISorp plates (NUNC) were coated over night with 2 ug/ml streptavidin in PBS at room temperature, washed 4× and blocked for 1 h at 37° C. in 2% BSA containing blocking buffer. Refolded HLA-A*02:01/MLA-001 monomers served as standards, covering the range of 15-500 ng/ml. Peptide-MHC monomers of the UV-exchange reaction were diluted 100 fold in blocking buffer. Samples were incubated for 1 h at 37° C., washed four times, incubated with 2 ug/ml HRP conjugated anti-β2m for 1 h at 37° C., washed again and detected with TMB solution that is stopped with […]. Absorption was measured at 450 nm. Candidate peptides that show a high exchange yield (preferably higher than 50%, most preferred higher than 75%) are generally preferred for a generation and production of antibodies or fragments thereof, and/or T cell receptors or fragments thereof, as they show sufficient avidity to the MHC molecules and prevent dissociation of the MHC complexes.

Row | Substance | Peptide Exchange (MHC class I binding score, peptide exchange yield)
1 | 382 (YLLPLLQRL; listed as Homo sapiens) [compound 382] | “++++” (≥75% = ++++)
2 | 348 (ALAKPPVVSV; listed as Homo sapiens) [compound 348] | “+++” (≥50 = +++)
3 | 90 (VIADLGLIRV; listed as Homo sapiens) [compound 90] | “+++” (≥50 = +++)
4 | 284 (LLSAAEPVPA; listed as Homo sapiens) [compound 284] | “++” (≥20% = ++)
5 | 196 (YLLLQTYVL; listed as Homo sapiens) [compound 196] | “+” (≥10% = +)
6 | 99 (ILIFHSVAL; listed as Homo sapiens) [compound 99] | “+++” (≥50 = +++)
7 | 293 (ALDIMIPMV; listed as Homo sapiens) [compound 293] | “+++” (≥50 = +++)
8 | 305 (LLFPQIEGIKI; listed as Homo sapiens) [compound 305] | “+++” (≥50 = +++)
9 | 301 (AASPIITLV; listed as Homo sapiens) [compound 301] | “+++” (≥50 = +++)
10 | 108 (VIYTLIHYI; listed as Homo sapiens) [compound 108] | “+++” (≥50 = +++)
11 | 280 (YTLDSLYWSV; listed as Homo sapiens) [compound 280] | “+++” (≥50 = +++)
12 | 209 (ILQAELPSL; listed as Homo sapiens) [compound 209] | “+++” (≥50 = +++)
13 | 151 (SLFDSAYGA; listed as Homo sapiens) [compound 151] | “+++” (≥50 = +++)
14 | 315 (LVYEAPETV; listed as Homo sapiens) [compound 315] | “+++” (≥50 = +++)
15 | 358 (FLTDYLNDL; listed as Homo sapiens) [compound 358] | “+++” (≥50 = +++)
16 | 336 (YMAVTTQEV; listed as Homo sapiens) [compound 336] | “++++” (≥75% = ++++)
17 | 304 (LAIVPVNTL; listed as Homo sapiens) [compound 304] | “+” (≥10% = +)
18 | 167 (TLDTSKLYV; listed as Homo sapiens) [compound 167] | “+++” (≥50 = +++)
19 | 287 (FLWEEKFNSL; listed as Homo sapiens) [compound 287] | “++++” (≥75% = ++++)

Row | Substance | Peptide Exchange (MHC class I binding score, peptide exchange yield)
20 | 85 (HLMLHTAAL; listed as Homo sapiens) [compound 85] | “++++” (≥75% = ++++)
21 | 256 (QLLPVSNVVSV; listed as Homo sapiens) [compound 256] | “+++” (≥50 = +++)
22 | 182 (VLLSVPGPPV; listed as Homo sapiens) [compound 182] | “+++” (≥50 = +++)
23 | 233 (GIIDINVRL; listed as Homo sapiens) [compound 233] | “++” (≥20% = ++)
24 | 15 (ALPEVSVEA; listed as Homo sapiens) [compound 15] | “+++” (≥50 = +++)
25 | 25 (ATYSGLESQSV; listed as Homo sapiens) [compound 25] | “++” (≥20% = ++)
26 | 110 (LLFDHLEPMEL; listed as Homo sapiens) [compound 110] | “+++” (≥50 = +++)
27 | 338 (FLDMTNWNL; listed as Homo sapiens) [compound 338] | “++++” (≥75% = ++++)
28 | 199 (YLVELSSLL; listed as Homo sapiens) [compound 199] | “++++” (≥75% = ++++)
29 | 267 (TLLDWQDSL; listed as Homo sapiens) [compound 267] | “+++” (≥50 = +++)
30 | 79 (GLQAKIQEA; listed as Homo sapiens) [compound 79] | “+++” (≥50 = +++)
31 | 211 (LIDVKPLGV; listed as Homo sapiens) [compound 211] | “+++” (≥50 = +++)
32 | 327 (VLIKWFPEV; listed as Homo sapiens) [compound 327] | “++++” (≥75% = ++++)
33 | 97 (LLFATQITL; listed as Homo sapiens) [compound 97] | “++” (≥20% = ++)
34 | 325 (TLENGVPCV; listed as Homo sapiens) [compound 325] | “+++” (≥50 = +++)
35 | 337 (YMYEKESEL; listed as Homo sapiens) [compound 337] | “++” (≥20% = ++)
36 | 177 (VLDDRELLL; listed as Homo sapiens) [compound 177] | “+++” (≥50 = +++)
37 | 160 (SLSFLVPSL; listed as Homo sapiens) [compound 160] | “+++” (≥50 = +++)
38 | 345 (YLIEPDVELQRI; listed as Homo sapiens) [compound 345] | “+++” (≥50 = +++)

Row | Substance | Peptide Exchange (MHC class I binding score, peptide exchange yield)
39 | 248 (KTVEPPISQV; listed as Homo sapiens) [compound 248] | “++” (≥20% = ++)
40 | 37 (FIMEGGAMVL; listed as Homo sapiens) [compound 37] | “++++” (≥75% = ++++)
41 | 283 (ILQPMDIHV; listed as Homo sapiens) [compound 283] | “+++” (≥50 = +++)
42 | 259 (RLLDEQFAVL; listed as Homo sapiens) [compound 259] | “+++” (≥50 = +++)
43 | 285 (GVATAGCVNEV; listed as Homo sapiens) [compound 285] | “++++” (≥75% = ++++)
44 | 180 (LLKDGPEIGL; listed as Homo sapiens) [compound 180] | “++” (≥20% = ++)
45 | 224 (AMEALVVEV; listed as Homo sapiens) [compound 224] | “+++” (≥50 = +++)
46 | 27 (AVLGLVWLL; listed as Homo sapiens) [compound 27] | “+++” (≥50 = +++)
47 | 71 (GLKHDIARV; listed as Homo sapiens) [compound 71] | “+++” (≥50 = +++)
48 | 346 (VLVQVSPSL; listed as Homo sapiens) [compound 346] | “+++” (≥50 = +++)
49 | 176 (VLAEQNIIPSA; listed as Homo sapiens) [compound 176] | “+++” (≥50 = +++)
50 | 198 (YLTFLPAEV; listed as Homo sapiens) [compound 198] | “+++” (≥50 = +++)
51 | 82 (GLQSGVDIGV; listed as Homo sapiens) [compound 82] | “+++” (≥50 = +++)
52 | 317 (NLLAHIWAL; listed as Homo sapiens) [compound 317] | “+++” (≥50 = +++)
53 | 221 (ALVSTIIMV; listed as Homo sapiens) [compound 221] | “+” (≥10% = +)
54 | 310 (LLSTLHLLV; listed as Homo sapiens) [compound 310] | “+++” (≥50 = +++)
55 | 219 (ALLNLLESA; listed as Homo sapiens) [compound 219] | “+++” (≥50 = +++)
56 | 172 (TLYDMLASI; listed as Homo sapiens) [compound 172] | “+++” (≥50 = +++)
